The RNAGym collection of RNA variant scans (doi:10.1093/molbev/msab373)

B1: Azoarcus group I ribozyme (parent)
chain: GUGCCUUGCGCCGGGAAACCACGCAAGGGAUGGUGUCAAAUUCGGCGAAACCUAAGCGCCCGCCCGGGCGUAUGGCAACGCCGAGCCAAGCUUCGGCGCCUGCGCCGAUGAAGGUGUAGAGACUAGACGGCACCCACCUAAGGCAAACGCUAUGGUGAAGGCAUAGUCCAGGGAGUGGCGAAAGUCACACAAACCGG

Variants of: B1
Test: reverse-splicing fitness (ratio to wild type); higher = more active; in vitro selection; Mg2+ level not given
Method in brief: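 An in vitro group I ribozyme library with randomized positions was T7-transcribed and gel-purified. In triplicate, 10 pmol RNA in EPPS pH 7.5 was reacted with 50 pmoles of a 30-nt RNA substrate for 1 h at 37 °C across several added MgCl2 levels (1–48 mM), then stopped with EDTA. Products were reverse transcribed from a substrate-complementary primer, PCR-amplified and sequenced (HiSeq 4000). Fitness is a variant's read proportion after selection over that before, normalised to wild type.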

Variant | reverse-splicing fitness
C82U A111G A120U A145C C150A U176C | 0.00275
C82U A111G A120U A145C C150A U176G | 0.002
C82U A111G A120U A145C C150G | 0.00671
C82U A111G A120U A145C C150G C169A | 0.00238
C82U A111G A120U A145C C150G C169A U176A | 0.00187
C82U A111G A120U A145C C150G C169A U176C | 0.00258
C82U A111G A120U A145C C150G C169A U176G | 0.00209
C82U A111G A120U A145C C150G C169G | 0.00252
C82U A111G A120U A145C C150G C169G U176A | 0.00255
C82U A111G A120U A145C C150G C169G U176C | 0.00251
C82U A111G A120U A145C C150G C169G U176G | 0.00197
C82U A111G A120U A145C C150G C169U | 0.00264
C82U A111G A120U A145C C150G C169U U176A | 0.00227
C82U A111G A120U A145C C150G C169U U176C | 0.00213
C82U A111G A120U A145C C150G C169U U176G | 0.00181
C82U A111G A120U A145C C150G U176A | 0.0026
C82U A111G A120U A145C C150G U176C | 0.00405
C82U A111G A120U A145C C150G U176G | 0.00159
C82U A111G A120U A145C C150U | 0.011
C82U A111G A120U A145C C150U C169A | 0.00187
C82U A111G A120U A145C C150U C169A U176A | 0.00277

Variant | reverse-splicing fitness
C82U A111G A120U A145C C150U C169A U176C | 0.0021
C82U A111G A120U A145C C150U C169A U176G | 0.00196
C82U A111G A120U A145C C150U C169G | 0.00245
C82U A111G A120U A145C C150U C169G U176A | 0.00322
C82U A111G A120U A145C C150U C169G U176C | 0.00203
C82U A111G A120U A145C C150U C169G U176G | 0.00171
C82U A111G A120U A145C C150U C169U | 0.00249
C82U A111G A120U A145C C150U C169U U176A | 0.00264
C82U A111G A120U A145C C150U C169U U176C | 0.00222
C82U A111G A120U A145C C150U C169U U176G | 0.00188
C82U A111G A120U A145C C150U U176A | 0.00377
C82U A111G A120U A145C C150U U176C | 0.00518
C82U A111G A120U A145C C150U U176G | 0.00212
C82U A111G A120U A145C C169A | 0.00224
C82U A111G A120U A145C C169A U176A | 0.00176
C82U A111G A120U A145C C169A U176C | 0.00194
C82U A111G A120U A145C C169A U176G | 0.00179
C82U A111G A120U A145C C169G | 0.00247
C82U A111G A120U A145C C169G U176A | 0.00218
C82U A111G A120U A145C C169G U176C | 0.0021
C82U A111G A120U A145C C169G U176G | 0.00126

Variant | reverse-splicing fitness
C82U A111G A120U A145C C169U | 0.00379
C82U A111G A120U A145C C169U U176A | 0.00232
C82U A111G A120U A145C C169U U176C | 0.00209
C82U A111G A120U A145C C169U U176G | 0.00126
C82U A111G A120U A145C U176A | 0.00851
C82U A111G A120U A145C U176C | 0.0117
C82U A111G A120U A145C U176G | 0.00339
C82U A111G A120U A145G | 0.0428
C82U A111G A120U A145G C150A | 0.01
C82U A111G A120U A145G C150A C169A | 0.00559
C82U A111G A120U A145G C150A C169A U176A | 0.00624
C82U A111G A120U A145G C150A C169A U176C | 0.00365
C82U A111G A120U A145G C150A C169A U176G | 0.00258
C82U A111G A120U A145G C150A C169G | 0.00549
C82U A111G A120U A145G C150A C169G U176A | 0.0124
C82U A111G A120U A145G C150A C169G U176C | 0.00574
C82U A111G A120U A145G C150A C169G U176G | 0.00221
C82U A111G A120U A145G C150A C169U | 0.00348
C82U A111G A120U A145G C150A C169U U176A | 0.00427
C82U A111G A120U A145G C150A C169U U176C | 0.00341
C82U A111G A120U A145G C150A C169U U176G | 0.00215

Variant | reverse-splicing fitness
C82U A111G A120U A145G C150A U176A | 0.00588
C82U A111G A120U A145G C150A U176C | 0.00749
C82U A111G A120U A145G C150A U176G | 0.00267
C82U A111G A120U A145G C150G | 0.00906
C82U A111G A120U A145G C150G C169A | 0.00768
C82U A111G A120U A145G C150G C169A U176A | 0.0084
C82U A111G A120U A145G C150G C169A U176C | 0.00712
C82U A111G A120U A145G C150G C169A U176G | 0.00326
C82U A111G A120U A145G C150G C169G | 0.00671
C82U A111G A120U A145G C150G C169G U176A | 0.0073
C82U A111G A120U A145G C150G C169G U176C | 0.00401
C82U A111G A120U A145G C150G C169G U176G | 0.00255
C82U A111G A120U A145G C150G C169U | 0.00654
C82U A111G A120U A145G C150G C169U U176A | 0.00458
C82U A111G A120U A145G C150G C169U U176C | 0.00581
C82U A111G A120U A145G C150G C169U U176G | 0.00292
C82U A111G A120U A145G C150G U176A | 0.00494
C82U A111G A120U A145G C150G U176C | 0.00719
C82U A111G A120U A145G C150G U176G | 0.00276
C82U A111G A120U A145G C150U | 0.0339
C82U A111G A120U A145G C150U C169A | 0.0056
